Target: bovine serum albumin (Bos taurus, UniProt P02769)
Assay: carbon nanotube field-effect transistor

Sequence of bovine serum albumin (P02769 25-607): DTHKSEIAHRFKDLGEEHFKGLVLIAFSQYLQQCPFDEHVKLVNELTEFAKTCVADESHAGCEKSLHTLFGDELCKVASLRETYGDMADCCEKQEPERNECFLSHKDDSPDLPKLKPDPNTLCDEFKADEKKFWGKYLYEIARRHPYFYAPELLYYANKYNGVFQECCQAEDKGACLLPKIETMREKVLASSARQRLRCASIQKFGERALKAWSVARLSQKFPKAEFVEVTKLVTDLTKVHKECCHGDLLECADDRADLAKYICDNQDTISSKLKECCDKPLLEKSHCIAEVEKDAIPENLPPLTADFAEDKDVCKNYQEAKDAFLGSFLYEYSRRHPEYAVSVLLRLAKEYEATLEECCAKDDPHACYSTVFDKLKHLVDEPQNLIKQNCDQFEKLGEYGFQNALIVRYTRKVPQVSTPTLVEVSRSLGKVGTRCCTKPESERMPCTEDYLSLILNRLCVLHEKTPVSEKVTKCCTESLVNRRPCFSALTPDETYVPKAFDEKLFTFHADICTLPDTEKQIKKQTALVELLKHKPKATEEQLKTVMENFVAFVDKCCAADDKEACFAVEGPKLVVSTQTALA

binding result: no binding (tested: 450 ng/mL)
B1: anti-OPN 23C3 scFv (scFv, V domains shown)
VH: EVQLVESGGGLVQPKGSLKISCAASGFTFNIYAMNWVRQAPGKGLEWVARIRSQSNNYTTYYADSVKDRFTISRDDSQSMLYLQMNNLKTEDTAMYYCVRQMGDYWGQGTTLTVSS
VL: YIQMTQSPASLSVSVGETVTITCRASENIYSFLAWYQQKQGKSPQLLVYAATNLADGVPSRFSGSGSGTQFSLKINSLQSEDFGTYYCQHFWGTPFTFGSGTKLEIK
